Where no end group is shown, it is not given here.
Biological target: T1, hCCR8 (Homo sapiens, UniProt P51685)
T1 construct: expressed in transfected cells
Test: Flow cytometry binding of VHH-Fc fusion antibodies to hCCR8 on stably transfected HEK293 cells
Conditions: Table 12; for EC50: VHH-2 CDR alanine mutants as human Fc fusions, HEK293 hCCR8; for % Bmax: normalized to wild type VHH-2-Fc
Protocol: VHH-Fc fusion antibodies were evaluated for their ability to bind to hCCR8 on stably transfected HEK293 cells by means of flow cytometry. Cells were incubated with different concentrations of the bivalent VHH-Fc fusions for 60 minutes at 4° C., followed by two washes with FACS buffer, followed by 30 minutes incubation at 4° C. with the Zenon R-Phycoerythrin Anti-human IgG (ThermoFisher Scientific, #Z-25455), and two additional washing steps. Data were plotted and fit using GraphPad Prism software. EC50 and Bmax values individual antibodies were calculated from the resulting dose-response curves. Bivalent VHH-Fc fusions (Seq ID NOs: 31, 33, and 87-103) of 19 different VHH domains (SEQ ID NOs: 27, 28, and 70-86) were tested for cell binding and results are shown in Table 7. […]
VHH-Fc fusion DNA constructs were then generated comprising encoding humanized VHH sequences (SEQ ID NOs: 106-111) fused in frame to the human IgG1 (SEQ ID NO: 34) directly to the short hinge sequence in the pFuse expression vector, and were expressed, purified and analyzed for binding to HEK293 cells expressing human CCR8 as in Example 5. Binding curves for VHH-Fc antibodies comprised of parental VHH-1 and the humanized VHH derivatives VHH-1.2-Fc and VHH-1.3-Fc are shown in FIG. 9A. Binding curves for VHH-Fc antibodies comprised of parental VHH-2 and the humanized VHH derivatives VHH-2-Fc, VHH-2.2-Fc and VHH-2.3-Fc, are shown in FIG. 9B. Cell binding EC50 values, normalized Bmax (relative to respective parental clone) data and humanizing mutations are shown in Table 10 below.
Approaches such as in vitro affinity maturation and rational mutagenesis can be performed to regain binding affinity and/or stability lost through humanization. In vitro affinity maturation generally involves building and amino acid substitution library where amino acid positions are varied across the CDRs and/or framework at a defined set of positions using sets of amino acids chosen to introduce new chemical diversity. The paratope residues within the CDR regions are of course key to antigen binding and care must be taken not to disrupt important structures while attempting to evolve improve antibody behavior. One approach to identify positions that are important to the maintenance of binding properties is to perform paratope mapping using single scanning alanine substitutions across antibody CDR regions. In this approach, residues that are critical to the maintenance of antibody binding to the antigen can be identified and at the same time permissive sites can be identified where it may be possible to make substitutions of other amino acids desirable for subsequent affinity maturation library construction. Site directed mutagenesis was used to make single alanine substitutions at each residue in the CDRs of VHH-1 (SEQ ID NO: 27) and VHH-2 (SEQ ID NO: 28). Changes in VHH-1 CDR amino acids to alanine are indicated in Table 11 (SEQ ID NOs: 112-137) and for VHH-2 CDRs (SEQ ID NO: 138-162) in Table 12. Mutation positions and residue changes to alanine with respect to the in the parental VHH sequences are referenced by their IMGT position. VHH domains containing the indicated modified CDR-1, CDR-2 or CDR-3 domains were used to construct Fc fusions by direct grafting to the short hinge of the human Fc domain (SEQ ID NO: 34). VHH-Fc constructs were expressed, purified and analyzed for binding to HEK293 cells expressing hCCR8 and the results are reported in Table 11 and Table 12. EC50 values are reported for each Fc fusion antibody containing a modified CDR, along with its respective Bmax value normalized to the to the matched wild type VHH-1-Fc or VHH-2-Fc fusion antibody.

T1 sequence (P51685 whole entry): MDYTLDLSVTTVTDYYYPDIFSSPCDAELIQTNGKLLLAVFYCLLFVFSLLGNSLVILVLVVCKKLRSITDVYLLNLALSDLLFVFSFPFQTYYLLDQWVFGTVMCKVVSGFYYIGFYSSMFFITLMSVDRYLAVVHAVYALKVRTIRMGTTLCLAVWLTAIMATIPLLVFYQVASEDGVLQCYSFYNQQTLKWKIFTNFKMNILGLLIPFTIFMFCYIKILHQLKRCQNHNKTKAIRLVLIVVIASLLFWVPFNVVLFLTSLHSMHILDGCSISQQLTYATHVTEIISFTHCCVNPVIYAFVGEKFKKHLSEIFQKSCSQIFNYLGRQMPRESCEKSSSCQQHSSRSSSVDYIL

Row | Substance | EC50 | % Bmax
1 | VHH-2 Y117A: VHH-2 alanine mutant, CDR3 QARMAMGSSQVVA, fused to human IgG1 Fc (also: CDR3 of VHH-2 in VHH fused to human IgG1 Fc) | 0.86 nM | 76%
2 | VHH-2 S30A: VHH-2 alanine mutant, CDR1 GSTATINR, fused to human IgG1 Fc (also: CDR1 of VHH-2 in VHH fused to human IgG1 Fc) | 1.62 nM | 66%
3 | VHH-2 S28A: VHH-2 alanine mutant, CDR1 GATSTINR, fused to human IgG1 Fc (also: CDR1 of VHH-2 in VHH fused to human IgG1 Fc) | 1.61 nM | 68%
4 | VHH-2 V116A: VHH-2 alanine mutant, CDR3 QARMAMGSSQVAY, fused to human IgG1 Fc (also: CDR3 of VHH-2 in VHH fused to human IgG1 Fc) | 0.83 nM | 72%
5 | VHH-2 S58A: VHH-2 alanine mutant, CDR2 TSARTSP, fused to human IgG1 Fc (also: CDR2 of VHH-2 in VHH fused to human IgG1 Fc) | 1.02 nM | 65%
6 | VHH-2 T59A: VHH-2 alanine mutant, CDR2 TSSRASP, fused to human IgG1 Fc | 1.48 nM | 74%
7 | VHH-2 S63A: VHH-2 alanine mutant, CDR2 TSSRTAP, fused to human IgG1 Fc (also: CDR2 of VHH-2 in VHH fused to human IgG1 Fc) | 1.08 nM | 70%
8 | VHH-2 S113A: VHH-2 alanine mutant, CDR3 QARMAMGSAQVVY, fused to human IgG1 Fc (also: CDR3 of VHH-2 in VHH fused to human IgG1 Fc) | 0.9 nM | 48%

Continued, values first:

Row | EC50 | % Bmax | Substance
9 | 0.87 nM | 65% | VHH-2 T35A: VHH-2 alanine mutant, CDR1 GSTSAINR, fused to human IgG1 Fc (also: CDR1 of VHH-2 in VHH fused to human IgG1 Fc)
10 | 1.03 nM | 69% | VHH-2 S57A: VHH-2 alanine mutant, CDR2 TASRTSP, fused to human IgG1 Fc (also: CDR2 of VHH-2 in VHH fused to human IgG1 Fc)
11 | 1.34 nM | 11% | VHH-2 V115A: VHH-2 alanine mutant, CDR3 QARMAMGSSQAVY, fused to human IgG1 Fc (also: CDR3 of VHH-2 in VHH fused to human IgG1 Fc)
12 | 1.43 nM | 65% | VHH-2 T29A: VHH-2 alanine mutant, CDR1 GSASTINR, fused to human IgG1 Fc (also: CDR1 of VHH-2 in VHH fused to human IgG1 Fc)
